T1: recombinant human CD70 (AviTag, polyhistidine tag and chicken tenascin trimerization domain fused to the … (chicken; human, UniProt P10039 110-139, limits assumed)
T1 construct: domain: trimerization domain; Expressed in Expi293, purified by IMAC and SEC; Copies 3 is inferred from the trimerization domain; not shown: AviTag; polyhistidine tag
T1 sequence: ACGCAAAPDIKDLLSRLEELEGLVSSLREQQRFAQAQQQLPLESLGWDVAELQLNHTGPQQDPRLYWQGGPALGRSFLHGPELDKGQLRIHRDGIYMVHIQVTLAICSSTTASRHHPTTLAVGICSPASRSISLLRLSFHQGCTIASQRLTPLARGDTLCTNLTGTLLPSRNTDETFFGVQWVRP

B1: 11C1 anti-CD70 scFv-Fc fusion (Fc fusion)
chain: QVQLQESGPGLVKPSETLSLNCTVSGGSISYYYWTWIRQPPGKGLEWIGHVIYSGTTNYNPSLKSRVTISVDTSKNQFSLKLNSVTAADTAVYYCVRAEGSLDAFDLWGQGTMVTVSSGGGGSGGGGSGGGGSGGGGSDIQMTQSPSILSASVGDRVTITCRASQSVSSWLAWYQQKPGKAPKVLIYKASSLESGVPSRFSGTGSGTEFTLTISSLQSDDFATYYCQQYNTYSHTFGQGTKLEIK
notes: scFv-Fc expressed in Expi293; not shown: part of the hinge and Fc from a modified human IgG2
B2: 10H10 anti-CD70 scFv-Fc fusion (Fc fusion)
chain: EVQLVESGGGLVQPGGSLRLSCAVSGFTFSNHNIHWVRQAPGKGLEWISYISRSSSTIYYADSVKGRFTISRDNAKNSLYLQMNSLRDEDTAVYYCARDHAQWYGMDVWGQGTTVTVSSGGGGSGGGGSGGGGSGGGGSDIQMTQSPSSVSASVGDRVTITCRASQGISSWLAWYQQKPGKAPKVLIYAASSLQSGVPSRFSGSGSGTDFTLTISSLQPEDFATYYCQQAFSFPFTFGPGTKVDIK
notes: as for B1
B3: P15D02 anti-CD70 scFv-Fc fusion (Fc fusion)
chain: EVQLVQSGAEVKKPGESLKISCKGSGYSFASYWIGWVRQMPGKGLEWMGVIYPGTSETRYSPSFQGQVTISADKSISTAYLQWSSLKASDTAMYYCAKGLSASASGYSFQYWGQGTLVTVSSGGGGSGGGGSGGGGSGGGGSELDIQMTQSPSSLSASVGDRVTITCRASQSIDTYLNWYQQKPGKAPKLLIYSASSLHSGVPSRFSGSGSGTDFTLTISSLQPEDFATYYCQQSYSTTAWTFGQGTKVEIK
notes: as for B1
B4: 12C4 anti-CD70 scFv-Fc fusion (Fc fusion)
chain: QVQLVQSGAEVKKPGASVKVSCKASGYTFTGYYLHWVRQAPGQGLEWMGWINPNSGGTNYAQKFQGRVTMTRDTSITTAYMELSRLRIDDTAVYYCARDRGVTMIVDGMDDWGQGTTVTVSSGGGGSGGGGSGGGGSGGGGSDIVMTQSPLSLPVTPGEPASISCRSSQSLLHSNGYNYLDWYLQKPGQSPQVLILLGSNRASGVPDRVSASGSGTDFTLKISRMQAEDVGIYYCMQTLQTPFTFGQGTKLEIK
notes: as for B1
B5: 10A1 anti-CD70 scFv-Fc fusion (Fc fusion)
chain: QVQLQESGPGLVKPSETLSLTCTVSGGSISYYYWTWIRQPPGKGLEWIGHIYYSGSTNYNPSLKSRVTISIDTSKNLFSLKLSSVTAADTAVYYCARAEGSLDAFDFWGQGTMVTVSSGGGGSGGGGSGGGGSGGGGSDIQMTQSPSTLSASVGDRVTITCRASQSISTWLAWYQQKPGKAPKVLIYKASSLESGVPSRFSGSGSGTEFILTINSLQPDDFASYYCQQYKSYSHTFGQGTKLEIK
notes: as for B1
B6: 11E1 anti-CD70 scFv-Fc fusion (Fc fusion)
chain: QVQLQESGPGLVKPLQTLSLTCTVSGGSISSDGYYWSWIRQNPGKGLEWIGYMYYSGSTYYNPSLKSRVTISVDTSKNQFSLKLRSVTAADTAVYYCTRDFGWYFDLWGRGTLVTVSSGGGGSGGGGSGGGGSGGGGSDIQMTQSPSSLSASVGDSITITCRASQDIDNYLAWYQQKTGKVPKVLIYAASALQSGVPSRFSGSGSGTDFTLTISSLQPEDVATYYCQNYNSGPRTFGQGTKVEIK
notes: as for B1

This assay has as its target T1, recombinant human CD70 (AviTag, …). The experiment in a line: SPR (Biacore 8K, 37 C): CD70 captured via anti-AviTag antibody on C1 chip, scFv-Fc as analyte; 1:1 Langmuir fit. On the procedure:
The antibody binding kinetics were determined by surface plasmon resonance (Biacore 8K, GE Healthcare Bio-Sciences, Pittsburgh Pa.) at 37° C. in HBS-T+ (0.01 M HEPES pH 7.4, 0.15 M NaCl, 0.05% v/v Tween20, 1 mg/mL BSA). Recombinant human CD70 diluted in HBS-T+ was captured on a C1 chip immobilized with an anti-AviTag™ antibody. Purified anti-CD70 scFv-Fc fusions were serially diluted into HBS-T+, injected at 30 uL/min for 2-4 min, dissociation monitored for 10 min then the surface regenerated with 75 mM phosphoric acid between injections. Buffer cycles were collected for each anti-CD70 scFv-Fc fusion for double-referencing purposes (double-referencing as described in Myszka, D. G. Improving biosensor analysis. J. Mol. Recognit. 12, 279-284 (1999)). Kinetic association rates (kₒₙ) and dissociation rates (koff) were obtained simultaneously by fitting the double-referenced sensorgrams globally to a 1:1 Langmuir with mass transport model using Biacore 8K Evaluation Software (GE Healthcare Bio-Sciences, Pittsburgh Pa.) then used to calculate an equilibrium dissociation constant (KD) from the kinetic rate constants (KD=koff/kₒₙ). The data was fit to a 1:1 steady state affinity model using Biacore 8K Evaluation Software to determine a steady state equilibrium dissociation constant (SS KD) as needed.
Background: In SPR one partner is held on a chip, and binding of the other changes the refractive index at the surface.
For the molecule B1, the Kd (in general, the concentration at which binding is half-saturated) was 0.8 nM; the koff (commonly the first-order rate constant of dissociation) amounted to 0.000186 s⁻¹; the on-rate constant (kon) (commonly the second-order rate constant of association) was determined as 224000 M⁻¹ s⁻¹; the “t1/2” value was found to be 62.2 min.
Turning to B2, the Kd was found to be 69.3 nM, the koff was 0.0032 s⁻¹, the kon worked out at 46200 M⁻¹ s⁻¹ and the “t1/2” value amounted to 3.6 min.
Taken in the same sequence, the figures for B3 were under 0.3 nM, under 8.05e-05 s⁻¹, 286000 M⁻¹ s⁻¹ and over 136 min.
The corresponding values for B4 are 0.3 nM, 0.000455 s⁻¹, 1.56e+06 M⁻¹ s⁻¹ and 25.3 min.
The corresponding values for B5 are 1.3 nM, 0.000773 s⁻¹, 577000 M⁻¹ s⁻¹ and 14.9 min.
With B6, the Kd was 1.7 nM, the off-rate (koff) is 0.001 s⁻¹, the kon is 578000 M⁻¹ s⁻¹ and the “t1/2” value came out at 11.6 min.

(Values after patent US20190233528A1 (published 2019).)
